Tested on: thrombin generation in platelet-rich plasma of a healthy donor
Assay: Thrombin generation curve (Thrombogram) in platelet-rich plasma, fluorogenic substrate
Type: cell-based, Human
Settings: platelet-rich plasma of a healthy donor treated with the inhibitor vs the same plasma untreated; FIG. 9
Procedure: FIG. 9 is an example of an experiment in which platelet-rich plasma of a healthy donor is measured as well as the same plasma treated with a known platelet-activation inhibitor (ReoPro®). The two curves are different in shape, which is obvious from a longer TTP and lower peak height, but the area under the curve of both curves are within 3%, identical. This effect on peak height and TTP in the absence of a clear effect on the ETP is also seen for many mild coagulation factor deficiencies such as von Willebrand disease, deficiencies in factor VII or factor V and in factor VIII or IX deficiencies (haemophiliae). In many instances the Peak height and TTP have proven to be much more sensitive parameters of the thrombin generation curve than the ETP alone.
Firstly, an experiment is described in which thrombin generation in a sample of platelet rich plasma is measured. Solutions used: Human platelet rich plasma, obtained as in Beguin, S., T. Lindhout, and H. C. Hemker. The effect of trace amounts of tissue factor on thrombin generation in platelet rich plasma, its inhibition by heparin. Thromb Haemost, 1989. 61(1): p-25-9. Buffer A: 20 mM Hepes 140 mM NaCl, 5 g/l bovine serum albumin (BSA), pH 7.35; Buffer C: 20 mM Hepes, 140 mM NaCl, with BSA 60 mg/mL, pH 7.35 with 0.02% sodium azide as a preservative.
FluCa solution: To 1750 μL of buffer C are added 200 μL of 1 M CaCl2. The mixture is warmed to 37° C. Then 50 μL of 100 mmoles/liter of the substrate solution in DMSO is squirted in and the tube is immediately vortexed to obtain a perfectly clear solution that is 2.5 mM in substrate. 100 mM in CaCl2, 2.5% in DMSO. […]
The disturbing effects a and b are corrected by continuous on line comparison of the first derivative of the signal from the thrombin generated in the sample (O=f(t)) and the first derivative of the signal produced in the other sample by the calibrator (S=f(t)). […] A and B are continuously calculated during the experiment from the best fitting straight line through S=f(t). […]

B1: ReoPro: a known platelet-activation inhibitor (antibody, chains of the INN, looked up, V domains shown)
VH: EVQLQQSGTVLARPGASVKMSCEASGYTFTNYWMHWVKQRPGQGLEWIGAIYPGNSDTSYIQKFKGKAKLTAVTSTTSVYMELSSLTNEDSAVYYCTLYDGYYVFAYWGQGTLVTVSA
VL: EIVLTQSPVTLSVTPGDSVSLSCRASRDISNNLHWFQQTSHESPRLLIKYASQSMSGIPSRFSGSGSGTDFTLSINSVETEDFGMYFCQQTNSWPYTFGGGTKLEIK
modifications: Fab
- TTP (time to peak) of thrombin generation curve: longer
- difference in area under the curve (ETP) between treated and untreated plasma: ≤ 3%
- peak height of thrombin generation curve: lower

Source: patent publication US8802386B2, “Diagnostic test for determining the concentration of transient proteolytic activity in composite biological media” (Synapse B.V., priority 2002, dated 2014)
